Assay results as given in patent publication US20240301069A1.

Assays:
[1] = target: human PD-L1 full-length protein on CHO-hPD-L1 stable cells (human) (UniProt Q9NZQ7); experiment: flow cytometry, antibody titration on CHO-hPD-L1 cells, MFI-APC
[2] = target: macaque PD-L1 on CHO-cynoPD-L1 stable cells (macaque); experiment: flow cytometry, antibody titration on CHO-cynoPD-L1 cells, MFI-APC
[3] = target: human PD-L1 on IFNγ-stimulated A375 cells (human) (UniProt Q9NZQ7); experiment: flow cytometry, antibody titration on human IFNγ-stimulated A375 cells, MFI-APC
[4] = target: human PD-L1 full-length protein on CHO-hPD-L1 stable cells (human) (UniProt Q9NZQ7); experiment: flow cytometry blocking assay: antibody titrated on CHO-hPD-L1 cells; blocked ligand recombinant human CD80-hFc
[5] = target: human PD-L1 full-length protein on CHO-hPD-L1 stable cells (human) (UniProt Q9NZQ7); experiment: flow cytometry blocking assay (method 1): antibody titrated on CHO-hPD-L1 cells; blocked ligand recombinant human PD-1-hFc
[6] = target: recombinant human PD-L1 protein carrying a hFc label (human) (UniProt Q9NZQ7); experiment: flow cytometry blocking assay (method 2): antibody titrated; binding of recombinant human PD-L1-hFc to PD-1 on CHO-hPD-1 cells is blocked
Sequence of recombinant human PD-L1 protein carrying a hFc label (human) (Q9NZQ7 19-238): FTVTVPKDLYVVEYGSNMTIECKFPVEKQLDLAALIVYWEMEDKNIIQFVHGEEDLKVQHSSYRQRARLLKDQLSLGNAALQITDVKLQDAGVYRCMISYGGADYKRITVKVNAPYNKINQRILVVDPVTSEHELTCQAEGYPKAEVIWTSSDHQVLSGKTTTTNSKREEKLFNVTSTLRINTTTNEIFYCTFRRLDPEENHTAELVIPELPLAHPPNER

Sequence of human PD-L1 full-length protein on CHO-hPD-L1 stable cells (human) (Q9NZQ7 19-290 limits assumed): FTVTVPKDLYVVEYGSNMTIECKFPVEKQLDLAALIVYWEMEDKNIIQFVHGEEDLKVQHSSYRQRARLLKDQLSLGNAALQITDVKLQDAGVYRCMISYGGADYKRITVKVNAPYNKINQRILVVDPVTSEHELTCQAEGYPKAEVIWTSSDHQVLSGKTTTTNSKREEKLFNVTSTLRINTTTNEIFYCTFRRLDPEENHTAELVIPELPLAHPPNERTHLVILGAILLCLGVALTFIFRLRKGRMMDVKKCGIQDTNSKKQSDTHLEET
Sequence of macaque PD-L1 on CHO-cynoPD-L1 stable cells (macaque) (Q9NZQ7 other isoform, or with tags, fused parts or gaps limits assumed): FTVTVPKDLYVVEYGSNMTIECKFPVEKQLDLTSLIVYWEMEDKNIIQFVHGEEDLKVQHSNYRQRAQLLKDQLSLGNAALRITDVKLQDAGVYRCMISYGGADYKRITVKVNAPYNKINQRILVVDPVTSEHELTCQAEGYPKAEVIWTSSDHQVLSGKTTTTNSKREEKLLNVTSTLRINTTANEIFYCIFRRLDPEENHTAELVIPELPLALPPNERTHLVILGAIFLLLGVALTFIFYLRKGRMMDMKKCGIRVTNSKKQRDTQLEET
Sequence of human PD-L1 on IFNγ-stimulated A375 cells (human) (Q9NZQ7 19-290): as the sequence (Q9NZQ7 19-290 limits assumed) above

EC50 [1]: 0.984 nM | EC50 [2]: 2.02 nM | EC50 [3]: 0.121 nM | IC50 [4]: 4.39 nM | IC50 [5]: 6.32 nM | IC50 [6]: 1.61 nM
Substance: atezolizumab-mIgG1 (mIgG1 subtype) (antibody)
